Results: publication PMC5572259, “The C-terminal Six Amino Acids of the FNT Channel FocA Are Required for Formate Translocation But Not Homopentamer Integrity” (Frontiers in Microbiology, 2017)
Values joined by “and” are separate entries in the source; they are usually repeats but may differ in a detail not shown here. Identical values can stand only once.

Target: the molecule itself
Test: native gel or EMSA; blue-native PAGE, 5-13.5% (w/v polyacrylamide) gradient gel, 5 ug of purified DDM-solubilised FocA variant per lane

B1: N-terminally Strep-tagged FocA (native, full-length formate channel FocA of Escherichia coli) (natural protein, UniProt P0AC23 1-285, looked up)
chain: MKADNPFDLLLPAAMAKVAEEAGVYKATKHPLKTFYLAITAGVFISIAFVFYITATTGTGTMPFGMAKLVGGICFSLGLILCVVCGADLFTSTVLIVVAKASGRITWGQLAKNWLNVYFGNLVGALLFVLLMWLSGEYMTANGQWGLNVLQTADHKVHHTFIEAVCLGILANLMVCLAVWMSYSGRSLMDKAFIMVLPVAMFVASGFEHSIANMFMIPMGIVIRDFASPEFWTAVGSAPENFSHLTVMNFITDNLIPVTIGNIIGGGLLVGLTYWVIYLRENDHH
notes: Formate channel FocA, Escherichia coli, full length (ends with H285; C-terminal residues after R280 are ENDHH); Kept in 2 mM DDM after purification; also called FocA5; native FocA5; source: E. coli BL21(DE3) with pfocA5 (pASK-IBA5focA), membrane fraction solubilised with DDM, purified (Strep-Tactin-Sepharose); not shown: Strep-tag II, N-terminal, kept
stoichiometry N: 5 and 10

B2: FocA5D283 (FocA truncation variant ending with D283, lacking H284 and H285) (domain or fragment, Escherichia coli, UniProt P0AC23 1-283, looked up)
chain: MKADNPFDLLLPAAMAKVAEEAGVYKATKHPLKTFYLAITAGVFISIAFVFYITATTGTGTMPFGMAKLVGGICFSLGLILCVVCGADLFTSTVLIVVAKASGRITWGQLAKNWLNVYFGNLVGALLFVLLMWLSGEYMTANGQWGLNVLQTADHKVHHTFIEAVCLGILANLMVCLAVWMSYSGRSLMDKAFIMVLPVAMFVASGFEHSIANMFMIPMGIVIRDFASPEFWTAVGSAPENFSHLTVMNFITDNLIPVTIGNIIGGGLLVGLTYWVIYLREND
notes: source: E. coli BL21(DE3) with pfocA5D283, membrane fraction solubilised with DDM, purified (Strep-Tactin-Sepharose); not shown: Strep-tag II, N-terminal, kept
stoichiometry N: 5

B3: FocA5H284 (FocA truncation variant ending with H284, lacking H285) (domain or fragment, Escherichia coli, UniProt P0AC23 1-284, looked up)
chain: MKADNPFDLLLPAAMAKVAEEAGVYKATKHPLKTFYLAITAGVFISIAFVFYITATTGTGTMPFGMAKLVGGICFSLGLILCVVCGADLFTSTVLIVVAKASGRITWGQLAKNWLNVYFGNLVGALLFVLLMWLSGEYMTANGQWGLNVLQTADHKVHHTFIEAVCLGILANLMVCLAVWMSYSGRSLMDKAFIMVLPVAMFVASGFEHSIANMFMIPMGIVIRDFASPEFWTAVGSAPENFSHLTVMNFITDNLIPVTIGNIIGGGLLVGLTYWVIYLRENDH
notes: FocA, Escherichia coli, stop codon at codon 285 (lacking H285); source: E. coli BL21(DE3) with pfocA5H284, membrane fraction solubilised with DDM, purified (Strep-Tactin-Sepharose); not shown: Strep-tag II, N-terminal, kept
stoichiometry N: 10 and 5

B4: FocA5E281 (FocA truncation variant ending with E281, lacking N282, D283, H284 and H285) (domain or fragment, Escherichia coli, UniProt P0AC23 1-281, looked up)
chain: MKADNPFDLLLPAAMAKVAEEAGVYKATKHPLKTFYLAITAGVFISIAFVFYITATTGTGTMPFGMAKLVGGICFSLGLILCVVCGADLFTSTVLIVVAKASGRITWGQLAKNWLNVYFGNLVGALLFVLLMWLSGEYMTANGQWGLNVLQTADHKVHHTFIEAVCLGILANLMVCLAVWMSYSGRSLMDKAFIMVLPVAMFVASGFEHSIANMFMIPMGIVIRDFASPEFWTAVGSAPENFSHLTVMNFITDNLIPVTIGNIIGGGLLVGLTYWVIYLRE
notes: source: E. coli BL21(DE3) with pfocA5E281, membrane fraction solubilised with DDM, purified (Strep-Tactin-Sepharose); not shown: Strep-tag II, N-terminal, kept
stoichiometry N: 5

B5: FocA5R280 (FocA truncation variant ending with R280, lacking E281, N282, D283, H284 and H285) (domain or fragment, Escherichia coli, UniProt P0AC23 1-280, looked up)
chain: MKADNPFDLLLPAAMAKVAEEAGVYKATKHPLKTFYLAITAGVFISIAFVFYITATTGTGTMPFGMAKLVGGICFSLGLILCVVCGADLFTSTVLIVVAKASGRITWGQLAKNWLNVYFGNLVGALLFVLLMWLSGEYMTANGQWGLNVLQTADHKVHHTFIEAVCLGILANLMVCLAVWMSYSGRSLMDKAFIMVLPVAMFVASGFEHSIANMFMIPMGIVIRDFASPEFWTAVGSAPENFSHLTVMNFITDNLIPVTIGNIIGGGLLVGLTYWVIYLR
notes: FocA, Escherichia coli, stop codon at codon 281 (lacking E281, N282, D283, H284 and H285); also called FocAR280; source: E. coli BL21(DE3) with pfocA5R280, membrane fraction solubilised with DDM, purified (Strep-Tactin-Sepharose); not shown: Strep-tag II, N-terminal, kept
stoichiometry N: 10 and 5

B6: FocA5L279 (FocA truncation variant ending with L279, lacking R280, E281, N282, D283, H284 and H285) (domain or fragment, Escherichia coli, UniProt P0AC23 1-279, looked up)
chain: MKADNPFDLLLPAAMAKVAEEAGVYKATKHPLKTFYLAITAGVFISIAFVFYITATTGTGTMPFGMAKLVGGICFSLGLILCVVCGADLFTSTVLIVVAKASGRITWGQLAKNWLNVYFGNLVGALLFVLLMWLSGEYMTANGQWGLNVLQTADHKVHHTFIEAVCLGILANLMVCLAVWMSYSGRSLMDKAFIMVLPVAMFVASGFEHSIANMFMIPMGIVIRDFASPEFWTAVGSAPENFSHLTVMNFITDNLIPVTIGNIIGGGLLVGLTYWVIYL
notes: FocA, Escherichia coli, stop codon at codon 280 (lacking R280, E281, N282, D283, H284 and H285); also called FocAL279; source: E. coli BL21(DE3) with pfocAL279 (pfocA5L279), membrane fraction solubilised with DDM, purified (Strep-Tactin-Sepharose); not shown: Strep-tag II, N-terminal, kept
stoichiometry N: 5 and 10

B7: FocA5N282 (FocA truncation variant ending with N282, lacking D283, H284 and H285) (domain or fragment, Escherichia coli, UniProt P0AC23 1-282, looked up)
chain: MKADNPFDLLLPAAMAKVAEEAGVYKATKHPLKTFYLAITAGVFISIAFVFYITATTGTGTMPFGMAKLVGGICFSLGLILCVVCGADLFTSTVLIVVAKASGRITWGQLAKNWLNVYFGNLVGALLFVLLMWLSGEYMTANGQWGLNVLQTADHKVHHTFIEAVCLGILANLMVCLAVWMSYSGRSLMDKAFIMVLPVAMFVASGFEHSIANMFMIPMGIVIRDFASPEFWTAVGSAPENFSHLTVMNFITDNLIPVTIGNIIGGGLLVGLTYWVIYLREN
notes: FocA, Escherichia coli, stop codon at codon 283 (lacking D283, H284 and H285); source: E. coli BL21(DE3) with pfocA5N282, membrane fraction solubilised with DDM, purified (Strep-Tactin-Sepharose); not shown: Strep-tag II, N-terminal, kept
stoichiometry N: 10 and 5
